Data reported in patent publication US20060172938A1 (RESEARCH FOUNDATION OF STATE UNIVERSITY OF NEW YORK, published 2006).
Where no end group is shown, it is not given here.

Legend:
[1] = target: T1, Native seprase isolated from LOX cells (human (isolated from the human melanoma …, UniProt Q12884 1-760)); assay: cell-based or functional assay
T1 sequence (looked up): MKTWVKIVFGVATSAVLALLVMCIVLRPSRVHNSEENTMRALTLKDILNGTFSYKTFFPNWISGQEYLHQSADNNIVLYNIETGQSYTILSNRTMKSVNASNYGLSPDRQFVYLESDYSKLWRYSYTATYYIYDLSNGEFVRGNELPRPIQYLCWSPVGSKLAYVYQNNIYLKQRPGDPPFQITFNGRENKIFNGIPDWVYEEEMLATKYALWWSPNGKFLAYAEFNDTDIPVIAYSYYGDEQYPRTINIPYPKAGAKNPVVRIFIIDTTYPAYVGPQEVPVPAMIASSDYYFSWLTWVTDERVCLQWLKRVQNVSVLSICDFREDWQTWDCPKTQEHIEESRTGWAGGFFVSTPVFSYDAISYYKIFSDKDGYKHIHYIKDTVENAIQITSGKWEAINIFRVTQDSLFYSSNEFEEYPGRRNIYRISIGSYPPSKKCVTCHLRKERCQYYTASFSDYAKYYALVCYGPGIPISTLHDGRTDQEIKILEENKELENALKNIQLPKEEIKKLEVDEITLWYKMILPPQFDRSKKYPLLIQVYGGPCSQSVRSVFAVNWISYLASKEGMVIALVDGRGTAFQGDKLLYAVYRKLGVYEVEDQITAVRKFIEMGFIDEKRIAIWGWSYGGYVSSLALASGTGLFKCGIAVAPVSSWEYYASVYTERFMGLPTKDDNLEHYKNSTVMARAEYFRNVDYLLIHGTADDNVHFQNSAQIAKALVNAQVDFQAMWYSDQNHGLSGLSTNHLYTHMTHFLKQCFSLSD

[2] = target: T2, Seprase on seprase-expressing LOX cells (human (human melanoma cell line LOX), UniProt Q12884 1-760); assay: cell-based or functional assay
T2 sequence (looked up): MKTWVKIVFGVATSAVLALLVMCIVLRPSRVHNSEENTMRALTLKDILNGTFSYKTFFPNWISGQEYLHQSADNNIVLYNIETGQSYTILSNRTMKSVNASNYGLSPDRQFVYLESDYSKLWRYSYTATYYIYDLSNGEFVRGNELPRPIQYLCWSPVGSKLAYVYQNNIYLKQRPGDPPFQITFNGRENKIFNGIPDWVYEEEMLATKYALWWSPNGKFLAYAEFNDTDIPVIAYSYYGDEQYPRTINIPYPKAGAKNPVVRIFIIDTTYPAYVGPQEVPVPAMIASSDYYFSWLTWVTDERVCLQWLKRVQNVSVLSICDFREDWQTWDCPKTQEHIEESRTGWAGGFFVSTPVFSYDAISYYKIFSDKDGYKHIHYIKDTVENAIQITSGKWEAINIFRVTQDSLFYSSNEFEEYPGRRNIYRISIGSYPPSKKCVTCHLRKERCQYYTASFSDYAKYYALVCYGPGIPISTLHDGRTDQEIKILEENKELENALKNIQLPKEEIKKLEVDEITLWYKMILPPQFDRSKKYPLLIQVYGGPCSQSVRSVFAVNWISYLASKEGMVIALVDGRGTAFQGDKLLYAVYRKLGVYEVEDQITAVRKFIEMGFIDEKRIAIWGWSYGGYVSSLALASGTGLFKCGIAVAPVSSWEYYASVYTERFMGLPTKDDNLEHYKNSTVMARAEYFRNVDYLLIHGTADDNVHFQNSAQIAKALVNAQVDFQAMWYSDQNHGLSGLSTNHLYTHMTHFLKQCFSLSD

[3] = target: T1, Native seprase isolated from LOX cells; assay: inhibition kinetic analysis; reference is DPP4
[4] = target: DPP4; assay: enzyme inhibition kinetics, prolyl peptidase activity of DPP4 with Gly-Pro-pNA, time progress curves (FIG. 1E)
[5] = target: T1, Native seprase isolated from LOX cells; assay: enzyme inhibition kinetics, prolyl dipeptidase activity of seprase with Gly-Pro-pNA, time progress curves (FIG. 1D)
[6] = target: T1, Native seprase isolated from LOX cells; assay: phage display panning and phage ELISA on seprase-coated wells (positive clone: OD405 experiment/OD405 control >3.0); peptide displayed on phage
[7] = target: T2, Seprase on seprase-expressing LOX cells; assay: ELISA and immunofluorescence on LOX cells
[8] = target: T2, Seprase on seprase-expressing LOX cells; assay: ELISA and immunofluorescence on seprase-expressing LOX cells

Sequence of DPP4 (P27487 whole entry): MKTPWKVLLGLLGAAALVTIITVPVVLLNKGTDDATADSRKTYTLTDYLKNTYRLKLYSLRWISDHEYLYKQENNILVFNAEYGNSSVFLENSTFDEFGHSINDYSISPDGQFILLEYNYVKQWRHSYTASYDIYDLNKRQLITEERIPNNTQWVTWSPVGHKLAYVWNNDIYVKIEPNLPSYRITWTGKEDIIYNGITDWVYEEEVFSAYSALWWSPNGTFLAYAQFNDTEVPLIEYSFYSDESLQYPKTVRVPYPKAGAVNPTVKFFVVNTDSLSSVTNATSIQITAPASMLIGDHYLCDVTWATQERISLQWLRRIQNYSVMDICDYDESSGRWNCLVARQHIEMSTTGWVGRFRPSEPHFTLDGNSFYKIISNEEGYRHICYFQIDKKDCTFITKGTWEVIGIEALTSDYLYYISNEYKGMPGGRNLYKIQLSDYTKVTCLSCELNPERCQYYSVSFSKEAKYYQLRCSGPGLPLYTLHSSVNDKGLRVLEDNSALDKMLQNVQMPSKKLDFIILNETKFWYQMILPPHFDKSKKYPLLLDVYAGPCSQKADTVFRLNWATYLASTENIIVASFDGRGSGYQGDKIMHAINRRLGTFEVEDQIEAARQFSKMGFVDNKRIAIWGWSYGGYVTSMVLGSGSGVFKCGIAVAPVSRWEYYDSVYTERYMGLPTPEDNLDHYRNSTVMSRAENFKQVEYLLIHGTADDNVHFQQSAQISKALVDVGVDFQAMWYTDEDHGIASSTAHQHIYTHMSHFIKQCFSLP

For CDMWERVSRC (also: cyclic peptide, mode of cyclisation not given here) [cyclic peptide CDMWERVSRC], the “IC50, inhibition of the gelatinolytic activity of seprase (DQ-gelatin assay)” value [1] was < 10 µM, the “IC50 on the overall collagen degradation by LOX cells (Bodipy FL C5 labelled type I collagen films)” value [2] was ~200 µM and the “fold more effective against seprase than DPP4” value [3] was 100 times. For the same binder, the Ki [4] was 40 µM and the Ki [5] was 400 nM.

B1: DMWERVSR (peptide)
peptide: DMWERVSR
notes: tested as a synthetic linear peptide in the enzyme assays
B1: binds [6].

RKISASEFDRPLR (Control) [control peptide RKISASEFDRPLR]: no binding [7].

B2: DLDYLSKF (peptide)
peptide: DLDYLSKF
notes: as for B1
B2: binds [6].

GGAGDMWERVSRG: binds [8].
